Results taken from the supplement of paper PMC9876800.

Test system: peptide library, one residue held at a place counted from the S/T acceptor
Experiment: relative phosphorylation of the sub-library (ratio to the mean residue at this position); higher = residue favoured
Conditions: human
Summary of the method: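 In 384-well plates, purified recombinant kinases (human or orthologue constructs) were incubated for 90 min under kinase-specific conditions with 50 μM biotinylated degenerate peptide sub-libraries and 50 μM ATP spiked with γ-32P-ATP. Each sub-library fixed a single residue at one position around a central Ser/Thr. Relative sub-library phosphorylation, measured by phosphorimaging and densitometry of streptavidin membrane spots, is given as a ratio to the mean residue at that position.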

Sequence of PRKD1, construct: Full length (Q15139 whole entry, looked up): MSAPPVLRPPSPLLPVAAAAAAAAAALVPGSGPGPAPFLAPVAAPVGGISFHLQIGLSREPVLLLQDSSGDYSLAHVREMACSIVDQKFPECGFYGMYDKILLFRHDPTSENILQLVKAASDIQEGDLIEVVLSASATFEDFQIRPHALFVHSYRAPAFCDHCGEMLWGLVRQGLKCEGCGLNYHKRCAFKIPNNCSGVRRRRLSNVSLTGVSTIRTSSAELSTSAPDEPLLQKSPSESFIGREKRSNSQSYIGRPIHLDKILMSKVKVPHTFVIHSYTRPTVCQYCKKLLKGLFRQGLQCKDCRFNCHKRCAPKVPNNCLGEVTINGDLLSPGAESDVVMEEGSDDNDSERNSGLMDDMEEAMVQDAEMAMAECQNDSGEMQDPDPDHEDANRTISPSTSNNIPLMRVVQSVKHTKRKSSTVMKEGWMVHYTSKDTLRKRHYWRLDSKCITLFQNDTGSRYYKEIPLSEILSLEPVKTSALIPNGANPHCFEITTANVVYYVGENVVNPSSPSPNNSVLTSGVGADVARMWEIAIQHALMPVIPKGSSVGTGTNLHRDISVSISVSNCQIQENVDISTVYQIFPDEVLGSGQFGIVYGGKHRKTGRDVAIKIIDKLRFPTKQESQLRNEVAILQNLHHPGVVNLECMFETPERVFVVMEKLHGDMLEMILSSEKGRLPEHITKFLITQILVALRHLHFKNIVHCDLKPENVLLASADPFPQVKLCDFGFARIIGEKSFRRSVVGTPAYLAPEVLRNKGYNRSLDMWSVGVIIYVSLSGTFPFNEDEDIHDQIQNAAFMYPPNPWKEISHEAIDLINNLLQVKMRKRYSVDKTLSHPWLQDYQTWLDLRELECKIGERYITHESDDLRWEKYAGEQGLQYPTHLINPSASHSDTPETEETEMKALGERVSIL

**Q.** Which results are given for “PRKD1, construct: Full length (from UniProt Q15139)”?
**A.** relative phosphorylation (A fixed, at +1): 0.979; relative phosphorylation (A fixed, at +2): 1.13; relative phosphorylation (A fixed, at +3): 0.873; relative phosphorylation (A fixed, at +4): 1.1; relative phosphorylation (A fixed, at -1): 0.938; relative phosphorylation (A fixed, at -2): 1.9; relative phosphorylation (A fixed, at -3): 1.38; relative phosphorylation (A fixed, at -4): 1.82; relative phosphorylation (A fixed, at -5): 1.63; relative phosphorylation (D fixed, at +1): 0.653; relative phosphorylation (D fixed, at +2): 1.21; relative phosphorylation (D fixed, at +3): 1.14; relative phosphorylation (D fixed, at +4): 1.37; relative phosphorylation (D fixed, at -1): 0.869; relative phosphorylation (D fixed, at -2): 0.32; relative phosphorylation (D fixed, at -3): 0.243; relative phosphorylation (D fixed, at -4): 0.514; relative phosphorylation (D fixed, at -5): 0.411; relative phosphorylation (E fixed, at +1): 0.53; relative phosphorylation (E fixed, at +2): 0.784; relative phosphorylation (E fixed, at +3): 0.839; relative phosphorylation (E fixed, at +4): 1.05; relative phosphorylation (E fixed, at -1): 0.564; relative phosphorylation (E fixed, at -2): 0.578; relative phosphorylation (E fixed, at -3): 0.347; relative phosphorylation (E fixed, at -4): 0.925; relative phosphorylation (E fixed, at -5): 0.362; relative phosphorylation (F fixed, at +1): 0.964; relative phosphorylation (F fixed, at +2): 0.86; relative phosphorylation (F fixed, at +3): 0.811; relative phosphorylation (F fixed, at +4): 0.885; relative phosphorylation (F fixed, at -1): 0.467; relative phosphorylation (F fixed, at -2): 0.609; relative phosphorylation (F fixed, at -3): 0.47; relative phosphorylation (F fixed, at -4): 0.792; relative phosphorylation (F fixed, at -5): 0.668; relative phosphorylation (G fixed, at +1): 1.19; relative phosphorylation (G fixed, at +2): 1.52; relative phosphorylation (G fixed, at +3): 1.75; relative phosphorylation (G fixed, at +4): 1.39; relative phosphorylation (G fixed, at -1): 0.878; relative phosphorylation (G fixed, at -2): 0.682; relative phosphorylation (G fixed, at -3): 0.919; relative phosphorylation (G fixed, at -4): 1.86; relative phosphorylation (G fixed, at -5): 0.708; relative phosphorylation (H fixed, at +1): 1.05; relative phosphorylation (H fixed, at +2): 1.04; relative phosphorylation (H fixed, at +3): 0.95; relative phosphorylation (H fixed, at +4): 1.23; relative phosphorylation (H fixed, at -1): 0.823; relative phosphorylation (H fixed, at -2): 0.726; relative phosphorylation (H fixed, at -3): 0.802; relative phosphorylation (H fixed, at -4): 0.897; relative phosphorylation (H fixed, at -5): 0.506; relative phosphorylation (I fixed, at +1): 0.989; relative phosphorylation (I fixed, at +2): 0.505; relative phosphorylation (I fixed, at +3): 0.669; relative phosphorylation (I fixed, at +4): 0.601; relative phosphorylation (I fixed, at -1): 0.383; relative phosphorylation (I fixed, at -2): 0.552; relative phosphorylation (I fixed, at -3): 0.284; relative phosphorylation (I fixed, at -4): 0.694; relative phosphorylation (I fixed, at -5): 1.03; relative phosphorylation (K fixed, at +1): 0.619; relative phosphorylation (K fixed, at +2): 0.518; relative phosphorylation (K fixed, at +3): 0.582; relative phosphorylation (K fixed, at +4): 0.651; relative phosphorylation (K fixed, at -1): 1.79; relative phosphorylation (K fixed, at -2): 1.78; relative phosphorylation (K fixed, at -3): 1.46; relative phosphorylation (K fixed, at -4): 1.09; relative phosphorylation (K fixed, at -5): 0.414; relative phosphorylation (L fixed, at +1): 1.02; relative phosphorylation (L fixed, at +2): 0.66; relative phosphorylation (L fixed, at +3): 0.887; relative phosphorylation (L fixed, at +4): 0.674; relative phosphorylation (L fixed, at -1): 0.863; relative phosphorylation (L fixed, at -2): 0.735; relative phosphorylation (L fixed, at -3): 0.346; relative phosphorylation (L fixed, at -4): 0.791; relative phosphorylation (L fixed, at -5): 3.41; relative phosphorylation (M fixed, at +1): 1.22; relative phosphorylation (M fixed, at +2): 0.946; relative phosphorylation (M fixed, at +3): 0.886; relative phosphorylation (M fixed, at +4): 0.924; relative phosphorylation (M fixed, at -1): 0.945; relative phosphorylation (M fixed, at -2): 1.79; relative phosphorylation (M fixed, at -3): 0.653; relative phosphorylation (M fixed, at -4): 1.25; relative phosphorylation (M fixed, at -5): 0.713; relative phosphorylation (N fixed, at +1): 2.19; relative phosphorylation (N fixed, at +2): 1.9; relative phosphorylation (N fixed, at +3): 1.2; relative phosphorylation (N fixed, at +4): 1.31; relative phosphorylation (N fixed, at -1): 2.05; relative phosphorylation (N fixed, at -2): 0.912; relative phosphorylation (N fixed, at -3): 0.829; relative phosphorylation (N fixed, at -4): 0.831; relative phosphorylation (N fixed, at -5): 0.537; relative phosphorylation (P fixed, at +1): 0.369; relative phosphorylation (P fixed, at +2): 1.81; relative phosphorylation (P fixed, at +3): 2.37; relative phosphorylation (P fixed, at +4): 1.46; relative phosphorylation (P fixed, at -1): 2.43; relative phosphorylation (P fixed, at -2): 0.593; relative phosphorylation (P fixed, at -3): 1.49; relative phosphorylation (P fixed, at -4): 0.656; relative phosphorylation (P fixed, at -5): 1.34; relative phosphorylation (Q fixed, at +1): 1.47; relative phosphorylation (Q fixed, at +2): 1.1; relative phosphorylation (Q fixed, at +3): 1.13; relative phosphorylation (Q fixed, at +4): 1.25; relative phosphorylation (Q fixed, at -1): 1.27; relative phosphorylation (Q fixed, at -2): 2.26; relative phosphorylation (Q fixed, at -3): 0.865; relative phosphorylation (Q fixed, at -4): 1.26; relative phosphorylation (Q fixed, at -5): 0.953; relative phosphorylation (R fixed, at +1): 0.537; relative phosphorylation (R fixed, at +2): 0.486; relative phosphorylation (R fixed, at +3): 0.364; relative phosphorylation (R fixed, at +4): 0.436; relative phosphorylation (R fixed, at -1): 0.703; relative phosphorylation (R fixed, at -2): 1.46; relative phosphorylation (R fixed, at -3): 5.06; relative phosphorylation (R fixed, at -4): 1.12; relative phosphorylation (R fixed, at -5): 1.29; relative phosphorylation (V fixed, at +1): 1.04; relative phosphorylation (V fixed, at +2): 0.688; relative phosphorylation (V fixed, at +3): 0.735; relative phosphorylation (V fixed, at +4): 0.624; relative phosphorylation (V fixed, at -1): 0.613; relative phosphorylation (V fixed, at -2): 1.01; relative phosphorylation (V fixed, at -3): 0.411; relative phosphorylation (V fixed, at -4): 0.844; relative phosphorylation (V fixed, at -5): 1.61; relative phosphorylation (W fixed, at +1): 0.966; relative phosphorylation (W fixed, at +2): 0.971; relative phosphorylation (W fixed, at +3): 0.889; relative phosphorylation (W fixed, at +4): 0.963; relative phosphorylation (W fixed, at -1): 0.535; relative phosphorylation (W fixed, at -2): 0.455; relative phosphorylation (W fixed, at -3): 0.677; relative phosphorylation (W fixed, at -4): 0.787; relative phosphorylation (W fixed, at -5): 0.538; relative phosphorylation (Y fixed, at +1): 1.22; relative phosphorylation (Y fixed, at +2): 0.86; relative phosphorylation (Y fixed, at +3): 0.926; relative phosphorylation (Y fixed, at +4): 1.07; relative phosphorylation (Y fixed, at -1): 0.873; relative phosphorylation (Y fixed, at -2): 0.644; relative phosphorylation (Y fixed, at -3): 0.777; relative phosphorylation (Y fixed, at -4): 0.857; relative phosphorylation (Y fixed, at -5): 0.878; relative phosphorylation (pThr fixed, at +1): 0.596; relative phosphorylation (pThr fixed, at +2): 0.624; relative phosphorylation (pThr fixed, at +3): 0.842; relative phosphorylation (pThr fixed, at +4): 0.939; relative phosphorylation (pThr fixed, at -1): 0.207; relative phosphorylation (pThr fixed, at -2): 0.27; relative phosphorylation (pThr fixed, at -3): 0.295; relative phosphorylation (pThr fixed, at -4): 0.467; relative phosphorylation (pThr fixed, at -5): 0.28; relative phosphorylation (pTyr fixed, at +1): 0.774; relative phosphorylation (pTyr fixed, at +2): 0.836; relative phosphorylation (pTyr fixed, at +3): 0.826; relative phosphorylation (pTyr fixed, at +4): 1.12; relative phosphorylation (pTyr fixed, at -1): 0.69; relative phosphorylation (pTyr fixed, at -2): 0.357; relative phosphorylation (pTyr fixed, at -3): 0.306; relative phosphorylation (pTyr fixed, at -4): 0.533; relative phosphorylation (pTyr fixed, at -5): 0.624
